Values joined by “and” are separate entries in the source; they are usually repeats but may differ in a detail not shown here. Equal entries are not always repeated. Where no end group is shown, it is not given here.

For orientation: Kd means the constant that tells how readily two partners part at equilibrium.

Test [1] has as its target T1, MED25 ACID (residues Leu389-Asn543), recombinant (human, UniProt Q71SY5 389-543).
T1 sequence: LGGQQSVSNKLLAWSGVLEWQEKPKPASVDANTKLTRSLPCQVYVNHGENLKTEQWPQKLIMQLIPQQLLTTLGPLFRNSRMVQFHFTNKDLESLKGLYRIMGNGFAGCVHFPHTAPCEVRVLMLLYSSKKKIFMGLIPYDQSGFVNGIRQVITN
Kind of test: NMR titration.

The target of test [2] is T1, MED25 ACID (residues Leu389-Asn543), …. In words: pull-down.

As to Ac-SDSTMTNYMNQLSELLGFDLNP [N-acetylated NS1 α3 peptide (RSV NS1 residues Ser118-Pro139)], in test [1], the Kd amounted to 17 ± 8 µM; the “apparent Kd, second site of lower affinity (H1 face)” value is 200 µM and 1000 µM.

B1: GST-ATF6αTAD (residues 1-150) (domain or fragment)
chain: MGEPAGVAGTMESPFSPGLFHRLDEDWDSALFAELGYFTDTDELQLEAANETYENNFDNLDFDLDLMPWESDIWDINNQICTVKDIKAEPQPLSPASSSYSVSSPRSVDSYSSTQHVPEELDLSSSSQMSPLSLYGENSNSLSSAEPLKE
Take B1: the binding result in test [2] is “binds”.
